Source: US20240059773A1 (PALLEON PHARMACEUTICALS, published 2024)

Columns and labels:
[1] = target: human PD-1 expressed on Jurkat T cells (human, UniProt Q15116 25-288); experiment: cell-based or functional assay
[2] = target: T1, recombinant human PD-1 (hPD-1) (human, UniProt Q15116 25-167, limits assumed); experiment: competition ELISA: antibody titrated 3x and mixed with biotinylated hPD-L1-Fc (1 ug/mL), loaded on hPD-1-coated wells; residual hPD-L1-Fc detected with streptavidin-HRP, A450
From the text: The plate was developed with TMB and Stop buffer and the absorbance at 450 nm was read using a SpectraMax plate reader. A450 absorbance curves and IC50S were generated using GraphPad Prism software.

[3] = target: T1, recombinant human PD-1 (hPD-1); experiment: BLI (ForteBio Octet); ASC captured on AHC biosensor, hPD-1 titrated from 100 nM in a 2x series; 1:1 fit
Protocol: ASCs were captured on an AHC (Anti-human IgG-Capture) biosensor. hPD-1 analytes were titrated from 100 nM in a 2× series dilution. The signal was subtracted with buffer reference and aligned to baseline. KD, Kon and Koff values were generated using a 1:1 fitting model.

T1 sequence (Q15116 25-167 limits assumed): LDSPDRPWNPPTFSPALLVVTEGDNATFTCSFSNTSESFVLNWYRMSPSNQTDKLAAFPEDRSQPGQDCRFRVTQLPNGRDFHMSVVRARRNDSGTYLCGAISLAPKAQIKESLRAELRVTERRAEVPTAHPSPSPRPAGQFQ
Sequence of human PD-1 expressed on Jurkat T cells (Q15116 25-288): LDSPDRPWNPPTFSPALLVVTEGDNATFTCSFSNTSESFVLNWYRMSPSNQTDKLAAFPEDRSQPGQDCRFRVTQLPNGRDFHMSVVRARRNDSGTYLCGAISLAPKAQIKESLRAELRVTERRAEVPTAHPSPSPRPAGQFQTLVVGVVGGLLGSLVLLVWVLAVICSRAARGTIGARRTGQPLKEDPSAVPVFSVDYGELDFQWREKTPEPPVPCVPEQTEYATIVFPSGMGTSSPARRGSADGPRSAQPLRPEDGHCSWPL

EC50 (nM), fold induction of NFAT-driven luciferase [1]: 7.23 nM
IC50 (read off the curve) [2]: ~7 nM
Kd [3]: 10.3 nM
B1: ASC #3 (Janus anti-PD-1 antibody sialidase conjugate) (antibody, human IgG1, kappa, N297A)
light: EIVLTQSPATLSLSPGERATLSCRASKGVSTSGYSYLHWYQQKPGQAPRLLIYLASYLESGVPARFSGSGSGTDFTLTISSLEPEDFAVYYCQHSRDLPLTFGGGTKVEIKRTVAAPSVFIFPPSDEQLKSGTASVVCLLNNFYPREAKVQWKVDNALQSGNSQESVTEQDSKDSTYSLSSTLTLSKADYEKHKVYACEVTHQGLSSPVTKSFNRGEC
heavy: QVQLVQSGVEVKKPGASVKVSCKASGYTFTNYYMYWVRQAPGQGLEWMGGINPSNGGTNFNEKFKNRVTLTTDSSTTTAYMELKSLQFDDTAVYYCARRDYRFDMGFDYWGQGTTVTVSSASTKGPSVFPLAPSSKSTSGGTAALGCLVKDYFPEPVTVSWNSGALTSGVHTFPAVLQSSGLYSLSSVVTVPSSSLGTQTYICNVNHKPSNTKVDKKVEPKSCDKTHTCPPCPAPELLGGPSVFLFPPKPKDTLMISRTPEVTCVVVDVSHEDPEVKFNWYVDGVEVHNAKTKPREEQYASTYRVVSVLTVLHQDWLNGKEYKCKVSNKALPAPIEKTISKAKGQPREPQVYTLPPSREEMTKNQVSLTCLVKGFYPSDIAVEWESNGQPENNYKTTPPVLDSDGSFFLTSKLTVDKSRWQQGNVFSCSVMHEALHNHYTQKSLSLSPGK
chain: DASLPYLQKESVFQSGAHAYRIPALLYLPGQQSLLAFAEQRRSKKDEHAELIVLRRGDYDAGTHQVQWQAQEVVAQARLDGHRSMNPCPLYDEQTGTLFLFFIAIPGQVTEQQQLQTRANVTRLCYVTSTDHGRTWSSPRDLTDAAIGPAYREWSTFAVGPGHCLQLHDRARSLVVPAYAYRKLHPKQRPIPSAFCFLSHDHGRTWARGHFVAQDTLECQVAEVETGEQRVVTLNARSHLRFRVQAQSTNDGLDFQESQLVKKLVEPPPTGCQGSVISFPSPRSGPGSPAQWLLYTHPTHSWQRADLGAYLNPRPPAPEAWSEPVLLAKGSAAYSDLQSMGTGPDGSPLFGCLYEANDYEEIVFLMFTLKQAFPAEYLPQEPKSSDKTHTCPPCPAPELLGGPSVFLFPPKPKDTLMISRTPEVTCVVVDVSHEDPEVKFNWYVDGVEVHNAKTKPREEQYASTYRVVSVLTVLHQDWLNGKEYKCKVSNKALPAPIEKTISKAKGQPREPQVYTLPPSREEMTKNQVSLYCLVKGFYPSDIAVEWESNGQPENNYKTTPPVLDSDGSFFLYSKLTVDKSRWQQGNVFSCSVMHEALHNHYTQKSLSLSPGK
notes: Janus format: one antibody arm (one heavy and one light chain) and one sialidase-Fc fusion, heterodimerised by knob (T366Y) and hole (Y407T) mutations; also called ASC #3-1; ASC #3-2
